Key:
[1] = biological target: T1, BMP10 growth factor (GF)-domain from Pro:BMP10 made in HEK EBNA cells, O95393; test: native PAGE prodomain displacement (densitometry); details: chain shown with the change, lower ratio = more prodomain displaced, read off a plot
T1 chain: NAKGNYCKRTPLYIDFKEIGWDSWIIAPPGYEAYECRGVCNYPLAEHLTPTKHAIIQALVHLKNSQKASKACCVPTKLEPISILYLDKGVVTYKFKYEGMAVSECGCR

[2] = biological target: T2, Recombinant human BMP10 growth factor (GF)-domain (R&D Systems), O95393; test: SPR (Biacore); details: chain shown with the change, BMP10 immobilised on a CM5 Biacore chip
T2 chain: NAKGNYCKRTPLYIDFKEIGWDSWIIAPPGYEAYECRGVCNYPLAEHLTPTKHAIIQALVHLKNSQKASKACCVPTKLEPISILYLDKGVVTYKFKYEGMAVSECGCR

[3] = biological target: T1, BMP10 growth factor (GF)-domain from …; test: ELISA (prodomain displacement); details: chain shown with the change; BMPRII ECD at 125x excess over Pro:BMP10; lower reading = more prodomain displaced; parent: est. 0.42; read off a plot

other: Pro:BMP10/prodomain ratio, normalized to no BMPRII control ([1]; BMPRII ECD at 2-fold excess (2x) over Pro:BMP10, parent: est. 0.59): 0.94
other: Pro:BMP10/prodomain ratio, normalized to no BMPRII control ([1]; BMPRII ECD at 5-fold excess (5x) over Pro:BMP10, parent: est. 0.46): 0.74
Kd ([2]; parent: 1.19E-06 M): 1170 nM
koff ([2]; parent: 1.61E-01 s-1): 0.0583 s⁻¹
other: OD reading, normalized to no BMPRII control [3]: 0.62
B1: BMPRII extracellular domain (ECD), wild type, Q13873-1 ΔGDP (del of Gly, Asp and Pro in the A-loop) (protein)
chain: SQNQERLCAFKDPYQQDLGIGESRISHENGTILCSKGSTCYGLWEKSKGDINLVKQGCWSHIQECHYEECVVTTTPPSIQNGTYRFCCCSTDLCNVNFTENFPPPDTTPLSPPHSFNRDET

Reference: paper PMC9064986
